# Assay results as given in a protein production outcome set (Wang et al. 2014).
# Assay: label from the status in PepcDB records
# 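Also: failed if final PepcDB status was selected cloned or expressed and not failed if soluble or beyond.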
row,Sequence,protein production
1,MAYFHGTGSEPAWKQMELVALIGLAAVLLRGPIAAAWKTVASRSNERKRHQRDPAARVGKGAGSKINLAALQYANLKLALREHRCRRLPRLLVTGNDAAVSRLLPELEEAGWFDTCDALLLSSKTSNEGQPDTAWLKRLYKLRRRRPVDAVIVVTDGAADLPMPRRGTHPYSIRLARIIEILRYAAPVYVVDVAGMDPTVSSDAPIIVCALPNQADASAIEEALLLLRNQLARRGLDQLTQEDRYPYQARLSQRFDTRSKALAKWTAGLIAGQIAVRGIAFAPYPSGTSTKPEMPGSADLPHWRYLSEAARRQPGKRIGWHPMTVCVGFALVAVGLWFAGMLASGWFNSRDVYAAQQAVTEIGSARNPATRLHALLALQQQIERYEYRTQQHAPLLTRFGLNRDADVLAALWQPYVKASRELLVTPVQQNLEATLVDLGQLQTTTLDDKTSQWALSGRDDLKAYLMLAYPERTEADFLAGRLPHDWSTEARITPGEKQALAERLFKFYAQHLKANPDWKIEPRPELVAGARQTLLAVIGARSAQETLYRGILNGAGNKYPDLTLPSLTAGTDARGLLRSAAAVPGVFTRQAYEGYVADAIDAAATRRDVAADWVLTGSQVAAVTATKSADELRAALTEQYFAEYAAHWQDFMNSLQWESAATLPAAIDQLKLLADARQSPAIALMKSLAYQGGAGVQKTSLSDTLVNKAKDILGKKDDAPNSAKAAPAGPLDAAFGPVLRLAGQPGQAGQGGNNDLSLQRYLDRITALRLRLQQVSIGADADDQARQMAQAMFQGKSSDLADTQAYAQLVAASLGAEWAGMGETLFVRPVAQATQAIVLPAQASLNDVWQRFIMAEWNRIFAGRYPFANTTNDASLPELAQFLRPQGGTIQTFLATQLAGVLELQGDQWMPAAGARGITFDPEFLKTINILQRIGAHMLVQGDPQYRFELKPIATPGLTDTKLTIDGQKLHYYNQRETWNRMTWPASNLQDPGTLLQWQTEKAGTNKNYEYGGRFALLRMIGHGHIVPIDSATVQITWPAVPDTRGPLEESTDAQSGKAPYEIRFLMRSEAGQGVLELLPLRGLKLPQRVFLVGKGGAAVDVPSPAARNAKRGGV,failed
2,MCAEIPAMGPDLAIARAAAARWRKRAAEREQTRKTLDHQPAGHFTPVDSVDRLAKRAGRLQQWAAAIRALPPAAILGLPAAPPPTGGAADTREIDMVAPALSLRALAAERIIGETSDLLSVEFLEIGVAAARAVGLITTRGAPNGTGFLVAPDVVLTNNHVLPDVRTARASALEMDFETNRHGPRKEVQSFELDPDGFFLTDAPLDFTLVRVRPTSDGGQALSDYGFLPLIAAEGKIAVGEPLNIIQHPGGRVKQAALRNNRLLDLPPSNEADALNPDAVFHYETDTEKGSSGSPVFNDQWEVVALHHTGVPKTDASGAMIDADGRVVPDSQPERIVWIGNEGIRISRLYQYVFTFTFADPAMASVRDALIALWTDAGRPGWARTAAEAETIVHPPAALADPPPAAPAIIPLAEERGAAIAPDPADPAYARRPGFRSDFLGLPTPLPRLVDDSRGPLATFGEGVSELRYHHYSVLMNARRRLAYVAAVNIDHRAPFDVQRGTDRWFFDPRLPKRLQAGGDYYAANPLDRGHLVRRDDAAWGYTQAEAQLANDDTFHWTNCSPQHEVFNQSAKASGKGLLLWGNLENAVVDLAKATNGRLCVYNGPLFTEDDRPYRQDFFVPGAFWKLIALIDGQSRPRALAFRLSQAAQIADLPAEAFAPAELAAFTPVQIPVATLGALTGLDFGALAQWDPLAAGSDGVSKETLSPPRSIILTREADIVF,failed
3,MCAMSQEHQNPTPLPQVSDMAPVNPPKNQRYPRAVDLSLIECHCCGLLNQVDSDHSEQAHSRHCIRCHSPLHVRKPRSLDRTLALVIAASILYIPANVLPMTMTDSLLGRQQDTIMSGVIYFWQNSDYLVAVVIFMASIFIPMLKLIILCFLLIAVRMQESSKWHFLPEHCALLYRIVEFVGRWSMIDVFVVALLTALIQIQSLATILAGPGAVAFGAVVVLTMFASLSFDPRIIWDNYYKAQAKQHDPLQTIDNTSSISVEQ,failed
4,MCENEEYRERFPDKHFDLETVLQAKVRPICVVPERTFIGFFHREKSKEEEEKEDVSLDFLKGVMSFDSIWEEIMKQEPEESASEHVIYIVSWNDHYFVLLVNHDAYYIIDTLGERVYEGCNQAYVLKFDQDAEIKRLPSVIKDNKADMGSQKQGGKNKYEQPERSKESEEQGEEVVVCRGKESCREYIKSFLAAIPIQQVKADMKEGLVSSFHHRLQIELYYTKHLHHRQPNMFESSTTKVTVSEATVSMTVAWLLASQFSNSGGFGCEMAELLGIKV,failed
5,MCGAWFFGARVFEFFTSLFESMKVLKLLPNFLTILRIVLSLFLLFLLLNTRTYFSFLTPFQTNMISSLVFLFAALTDLLDGYIARSYKAKSRFGEIFDPLADKILILSAFLGLVYLDRVNAWIPFVILGREFFISGLRVLAANEKKDIPVNALGKYKTVSQVVAIGALLADVTYSYALVAIAVFLTLYSGIDYTIKYYKS,failed
6,MCIAVIGGMDRLERHYRQEAARTGFELRVFSQSENNIATKLKRFDALVIFTNKVSHRVRNEAMSAAKLNGIPVFQYHSCGVCTLRDCLNCLVLPAGGGTKLEHHHHHH,failed
7,MCKLIKCELLKLKSMLGAILAFFFPLLLVSIGLLNIYTGSVKISGTSEMWNAIYVQSSSLYGGILFPVFLSALVSLQWRVEFKNNNINNILITDKSHKDIYLSKIFSTFVIAFINIILYIIIIFISVKVLLPKETVKAFIFYGPIIGLLFSLPLICIQHFLSMNFKNFALPLVIGIVLSLPNFVASCYSFSTFIPYSYICKGMFFNVKNSLNVECPIYIFILTALIFVASVSLGTKVFKNKEFR,failed
8,MCLKNNAKDEIMDSTKAWYQSRTIWGALIAVFAPLFSIAGFDLPAGLHGELAEGLVTVAGGIGGLIALYGRLSATRSIR,failed
9,MCNGKVVNKGDDCQSLTFRRRSGWAMIDRSAVMEKTMDSRIQDVLDIYHAMIETEHNSPRELPPGGRDGGQDQRLRAVGQATGQFINILAKSLKSPTILELGTSFGYSGIWLAEAARASGGRLITMEMHDYKSAYARDMAVKAGLAEHVEFKVGDAVQMIGALSSGIDFVLVDLWKDLYVPCLEAFYPKLNPGAIIVADNMLRPGGDDLKRYSDAVRAKPWISSVLLPVGSGLEVSRFD,failed
10,MCQESVIVMQATQPLQTVSQAVPKEFLQADGGFNPNVAMFGIAILLMLANVFGYWQWGLPHWLCFSCSVLALHLSGTVIHDASHNAAHRNTIINAVLGHGSALMLGFAFPVFTRVHLQHHANVNDPENDPDHFVSTGGPLFLIAARFFYHEIFFFKRRLWRKYELLEWFLSRLVLFTIVFLGIHYGFIGFVMNYWFVPALIVGIALGLFFDYLPHRPFQERNRWKNARVYPSPILNWLIFGQNYHLIHHLWPSIPWYQYQNTYHITKPILDEKGCDQSLGLLEGKNFWSFLYDVFLGIRFHGHNNSQSSDKP,failed
11,MCRALLSITMQIPLVKWTEGLNIKTIVSISYVCYAVAAIGFAFSSSIFWLLSTAVLFTAAESMLLNHMQTFVSRLAPNHIRGGYFAFFGPHWDISRTIGPFLGGMIFIKFGGAALFLAIAGIMALGGIAQYRAVSRLKKLVLYSTWY,failed
12,MCRTRPSCGRMEEKRPVDAAGAVALIGIAALLAFNQVVIKVTGGGFGPLFQAGLRSALGLVFVLIWMRLLRKPIVFPRAALMGALITGLLFTVEFMALFAALDLTSVSRVSILFYSMPVWLALGGHFLLPGERLSGMRVLGLMLAMGGVVLALLERDAAHVSLLGDALAVFAAMCWAAIALGVRLTPLGRVPAEMQLMSQLVISAPLLLVLAPLTGETLRTPGLLHWAGLLFQAVGVVGLGFLIWFRLLAVYRANGVASFSFLSPVLAVILGWLLLGEQVGPLVWLALGLVAAGIVLINRR,failed
13,MCRYCLIVAARVGAVDDARFDMTAPDLIPIETLFGMPEFSRAQISPDGRLVAYLAPWRGRLNIWVRPVGQGTARRLTGDDTRNIDGFSWTRDTRYLLFIQDTQGDENWHLHRVEVDGAEAVGGKARTVDLTPYSGVRVMGLELSAAFPSKAFVQMNLRTPDLIDLYEVDIESAETRVAALNPGRFVRWIVTPNGPMHAFIINDVGDHELARYENGVFTTLAKLSGRDQPIGPMPLMVAADGESVLVGCNAGSDHTYLAAIDLATGKCRVIDSQPDCSLDTPRPEADPRFPSSLITNPVTGELLAVRYLGKRQQIRPLNLRFAAVLNSLQRLSDGEIGYISCDAGGRQWVAEFWDDRHPGTTWFYEHESGEAHVLGERFSALSAERLVSVRPIDVISRDGLTLPCHVTLPVGFDAKDEPRALPTVLLVHGGPWYRDACVYDPEVQFLANRGYAVLQVNFRGSTGYGKAFMQAAIGEFSGRMHDDLIDGLDWLIGQGIADPARVAIYGCSYGGYAALVGASFTPERFTATISYSGISDLRMLVNGVVPFVQPTLINTYLSYMGDPDIETQNRDMLARSPVSRLDCISKPLLVVHGANDVRVAKAQADMVVERVRANGVEVDYLLNEREGHWFINEDSNIELYRKIERFLARHLRGE,failed
14,MCSALVVAAPHSGSGKTTVTAAIARYHRVQGRKVTVFKVGPDFIDPMILRQASGELVYQLDLWLVGEQGCRALLHRAAMDSDLILIEGVMGLFDGTPSSADLAKYFNIPVLGVIDAKAMAQTFAAVTFGLAKFCEDLPFSGVIANRVNTERHAELLSVSLPKAFRFYGRIPKDDTITLPERHLGLVQAQELSDIDVQLDKAASHIANTGLTELPSQVEFFAQEDDNQENIIEGALAGTRIIIIRDSAFSFIYAANIAFLTQTGAELIYCSAMADVHLPDGDILYIPGGYPELYAEQLMNNVTFLSDIRAFSASNKPIVAECGGMLYLLEQLTDMEGQQFSMLGLMPGKATMQKKLAAIGSQWVPLPSFADAAEDSADNIMRGHSFHYSCAEIELEPSSQTTHHPSERAGEYVYQHNNILASYMHWYFPSNPSLTLRIFDKARYLLEHHHHHH,not failed
15,MCSLEKRDRLFILKLTGDGEHRLNPTLLDSLRSTINQIRSDPSFSQSVLITTSDGKFFSNGYDLALAESNPSLSVVMDAKLRSLVADLISLPMPTIAAVTGHASAAGCILAMSHDYVLMRRDRGFLYMSELDIELIVPAWFMAVIRGKIGSPAARRDVMLTAAKVTADVGVKMGIVDSAYGSAAETVEAAIKLGEEIVQRGGDGHVYGKMRESLLREVLIHTIGEYESGSSVVRSTGSKL,failed
16,MCVRHDAGHGCLRAREGRRRPSMAPPCRKKINKPVLVRVDEFCSAAVQAGNPIVPSTLETTHWATRRRPKEAGMASKMFKTVGRVAAGVAALSIAAAATTASADSRHHRHKRDKGGDVAAAAITAGVIGLVIGAAIADDGHRDDRYYDRRYAPPPPPPPTRYGHGYGYGYDYDYAPRPYYGDRECWTTREYNRRSGSYYERTVCR,failed
17,MDAEAAKMIGAGLAAIGMIGSGIGVGNIWANLIATVGRNPAAKSTVELYGWIGFAVTEAIALFALVVALILLFAA,failed
18,MDAKHIEKVFVKKVPAKSNKAQVKYPFDENSVNVLIIGLDKASNRSTYDLHRTDTILFLNINFKDKKVKGISIPRDTLTEIYKVGKWDKINSAFGYGGGEKEEGFFYTMETVSKLLGGMPIEYYVGFDLDAVRKVVNILGGVYVNVEVPVKVKTKWVNIDLKPGYQKLNGIETLYYALWRKTPGGDIDRIKRDKELILSVFEQLKESNKIITLPEIYWKIRRHFYTNLSLQQITSLAYFAQNMKKEDIVFESIPGDYFNYMGVSYWKPDYEGIKKLVKDLFGYDIEIDLKMPEKYKYARRIIVKAKKENNISYLEHHHHHH,not failed
19,MDAKQLSKRLATVGAFVQPGARVADIGSDHAYLPANLALNHQISYGVAGEVVRGPFENARHEIQKLGLTDRLVARLADGLAAIEPADRIDTVTIAGMGGPLIRHILEQGPTQLAGVQRLVLEPNVGEATVREWLAANQFQIVAERILAEDGHTYEILCADRVDHQVTYTTAEQMFGPFLLAEKSPVFIAKWQRELQRVNAAVAQMQRAKVIPEEQLALAHAKIKLIEGVLTDASK,failed
20,MDAKVAFSPHSDANGRLDEIGADIDTAQSSVLFSLAFLGQMTRGAIGPALGRALERPEVHVMGIADAEVRAGNLGLNVLTPDNRRRVVRAAALTGNVPPPFLTEPSGLAGVDGNQRGTRMHHKFVVLDFDKPTARVYLGSYNFSNPADDENGENLVVVRDRTVATSYMIEALRMYDHLEHHHHHH,failed
